Reference: a protein production outcome set (Wang et al. 2014)
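Note: failed if final PepcDB status was selected cloned or expressed and not failed if soluble or beyond.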

Assay: label from the status in PepcDB records
For “MSYNNSYDVIILAGGLSKRFGADKCCFEVNSKTMLDRLLEQFDNPIVVSRSPRRIKKGILVIEKGEYEGPVKGVREGLKYVRRDRVFITGCDFPFLIKNLVDYVCSKPYDIVIPFDHRPQPLLACYSTELLNKNIDKINGLVELIELSSSVYFIGTEELLKIDPFLYSLININSIIDLIYRPIRIKTKSNFILRLEHHHHHH”, the protein production was “failed”. With “MTAANSERYALRLLGPFELTAPGGRRVEITSKKGIAVVAMLALSRDGARSRGWLQDRLWGSRRKAEAAGSLRRELSNLRKLLNADGAELLLSDRDRVRLRTDLIDIDLFVARSGRANGEFLEGLDISSERGFGEWLREQRDALVPPAQDVVVSAVTAGAGTLPTHIVDISTPPVGFAGRPAIAVLPFANATGDETLDYVAEGIGEELIVGLSRIRWLPVISRNSSFSFTESDDRKLIGQRLGAQYLVEGRLYRAYDSYGVSASLAEAITGYSLWSRRFTLQSPAAHDELVQFVNELVAQLESRIEHAEQIRIRGKRQDKLGVCDLIWRGRWHLNRLTRADSEMAQKLFAEALALDPDSPEALIQATAALAWSIWAGRQPQDQIQRMRKLSQQAMLADPDDGRGFMLAGIAEMWLRHPLEAKNLLRQAITLTPSLALAHAQLGGCFNLAGEPDRAIVQLKTAMRLSSNDPNIFYSLGELALAYTMLGQWPEAIEHATLALARRPAYWYAHVLKINALARIGQLDAARIACDELLAIKPNFSKRFLDWLPFVDRTWVDHFVQGLKMVPGRPSDWPERETHETAA” the protein production was “failed”. In the case of “MTADKISPDMLRFERILAAPAATVWQYLVDPELRARWFMSGPTDLQVGGAFGLTMDHDRLSDEVVPTPDRYKPYVGHRWHERITRYEPPHLLAFTWEDGKAGEVTFALTEIDSGTTRLVLTHTGLRGSEDALNFGGGWHAHLAVLEKRIAGISIPDFWALHAVAEREMEIALVSEA”, the protein production was “failed”. In the case of “MTAENSATPDYRRNVGAVADALLAHPGPIVVLSHENPDGDALGSVLGLSRALRTLGKTVLAPMTVPHYLSFLPQPGELTAPLESWPQGALAAVLDVDNNDPVRVAGADLTQFDGPVVNVDHHGTNLRRADAGVVDPSKPAAAMMVADVIDALGAPWSEAVATPLMLGLNTDTGNFAFDSVSAETFECAARLRAHGARIGWLNDQMRQNPQSYYLLLREVLGKLEFLHGGRVVQTRVDEEMLARAGATWEQVENYVSMLRNAEGAQLAVMAKDYGDRVKFSLRSRGPVSAQNIAVALGGGGHVPAAGATVISSYAEARARLDAAIEAELARVDAQATAE”, the protein production was “failed”. In the case of “MTAHKQPEANETESLLEQVQALESEVRGVVKTQLQLAGMETRRAGESFVRMVAFAVLAACLAFTAWAVLVTAAVIAIVNSSVMSLTTALVIVAVAHLAAAFYIVRYIKRRSRDLLFAETSSSL”, the protein production was “failed”. In the case of “MTAHPPRPELQIDIVSDVVCPWCIVGFRQLDQALAATGVLARLRWHPFELNPQMGPEGQNLREHIMEKYGSTPEQSAEARARLTAIGAELGFTFNFTDDSRIVNTFAAHQLLDWAEGQGRQHPLKQALFAAYFTDGRDVSDLSVLLDAVEAAGLDREAAQTALTSGAHQAPVREKQKFWAQHGISGVPSMVFGGKYLLTGAQGADTYAQVIQRCLAEAA”, the protein production was “not failed”. With “MTALHDLPGTRLLALFARRELSPGEYYEHLLAHIQRWEPHLNALYRFDPQRVREQAAAATERWRKGQPKGPLDGLPVTIKELIATAGEPIPLGSAATALQPAPCDAPPAARLREAGAIVLAKTTVPDFGMLSSGLSSFHGVTRNPWNLANNTGGSSSGAAAAATAGYGPLHLGTDIGGSVRLPAGWCGLVGFKPSLGRIPIDPYYTGRCAGPMTRCMDDCLLLMRYLAQPDARDATSLPPEVLDWSAEPLSVRGLRVGLQLDPGCGLQPDAEIRAAIEAAARLFEEHGAQLRIVEPLMDRSLLDGLNDFWRARLWSELLLLDETRRARVLPYVHAWAEGGARVSGVDAVRGFNQTFEMRRRAARLFGEIDLLLTPTNQVEAFPADWASPLNDPQRPFEHIVFTVPWNMGEQPALSINCGFTAAGMPIGLQLVAPRFADTWLLRIGKTYEGWRGPIHGWP” the protein production was “failed”. For “MTAMMTILGPVLMGAAFGFLLQRGKVTNCNVIENQFRLRDFTVLKVMGTAIVVGGIGVLLLVDTGNTKYYVKDANMLAIALGAALFGIGMVVYGYCPGTALGAIATGSIHALVGALGMVAGAILYALSFDWLKAHVLNVWALGKVRLPDVTNIPDIIWFAALAVGAGLFFWWIESVEAEQKRM”, the protein production was “failed”. In the case of “MTAPEETAPVSVRKPSKPDLWKDSLGRTATRALQILLILTLTVVAVFGLLQIRLLVIPVLIALILAAAIGPFVNMLRRRGWRGGLATGVAFLGLLIVLGGVITVIVMSVRSQWDELISQAAAGLDELESFLLTGPFPIDREQLNQAREAVVEFAQSSQVRSGAVTGLSVVTEFLAGASLVVVILFFFLKDGAKIWEFFLRPFKGRREAKLRRVGKRTMEVLGGYVRGTAIVALVDTVAIGAALLIMQVPLAIPLAIIVFIGAFIPLVGATVAGILAALVALVANGPIVALIVIIVVIAVNQLEGDLLQPVVMGKSLELHALVILMALTAGTILAGIIGAVLAVPIAAVTWAIIQVWTAEDPDLEPMNPELPPANSQPT”, the protein production was “failed”. With “MTAPGSMPLTVIGGFLGAGKTTLLNYLLKVQHSERVLVMVNDFGSINIDAELLDQGRHDRPGVVRLQNGCVCCSIGGDLMQAFLQVMSMPDRPDRIIVEASGVADPTRIAQIGRVSGGLSDEGVITLVDASAVRTLAADKYVGDIVRQQILSADIVLLNKLDLSSDAEIVETRAWLRDLAPRTRVVSCIHGEVDAVSVLGIGAGKVAPDAAGGPVDVPVPDLRRASTRHADTFHSSTLATAHRFDRRRIEYALDALPQTVLRGKGFVELEGEATPALLQLCGSRWTLDPVSTPAPPAGTHLVFIATGGRGVPRFDAPSHFEQALASRDAASADTSNLEHHHHHH” the protein production was “not failed”. With “MTAPKVFVSHASEDKARFVVDFARRLRENGVDAWLDQWEMKPGDSLVDKIFEEGLREARAVVIVLSATSVRKPWVREELNASVVNRISRGTKLIPVVIDDCDVPEALRSTVLEHHHHHH” the protein production was “failed”. For “MTAPKVFVSHASEDKARFVVDFARRLRENGVDAWLDQWEMKPGDSLVDKIFEEGLREARAVVIVLSATSVRKPWVREELNASVVNRISRGTKLIPVVIDDCDVPEALRSTVWQKIDNLDDYGESLQRILSVIFDVTDKPALGAPPARFAGPAPLIAGLSRVDDLVIRVIARRQIDEGAGLVEWDRLKAEPILRDVPQQELLDSLEILKRHDFIRVREVIGALHVVLTDLGFLKFAEAYVDDYQGTVNQIAALLVNENVRQNRELAARVNKPVAFIDFVLNLMESNGYIKVSKYIGGQSHVREVSASLRRALQSA”, the protein production was “failed”. With “MTAPRYPRDMIGYGATPPNANWPGNARIAVQIVLNYEEGGENNILHGDAASEAFLSEIVGAAPWPGQRHWNMETIYEYGARAGFWRLHRLMRDLPVTVYGVATALARSPDQVAAMKSAGWEIASHGLKWVEHKDMPEEEERAQIAEAIRLHTEVTGSRPRGWYTGRCSMNTVRLASEAGIDYIADTYDDDLPYWKRIDGRDQLIVPYTLDCNDMRFATPQGFNSGDQFFAYLKDSFDALYAEGGEGAPKMLSIGLHCRLIGRPGRVMALKRFLDYARGHEDVWFATRLQIAEHWVREHPPVARTRPSEMPKADFVAAYGGIFEHSPWIAERAHGLELGPAHDTAGGLHNALCRMFRSASAEERLGVLTAHPDLAGKLAQAKRLTAESTSEQASAGLDALTDEERTTFTRLNTEYVARFGFPFIIAVRDHDKASILAAFQRRIGNDRETEFAEACRQVERIAEFRLRDVLPSLEHHHHHH” the protein production was “not failed”. With “MTASDDAPISTDRFMFGRAQRWLHWSMALLIFAAIGLGIVAAYYPSGQQPRQGLLELHKSIGFTILALLVVRIVLRLISGEPPYRRPLGHLTEMAARAGHLALYGLMLLMPLSGYLFSGAGGYSLPWFGLFQWPRLVPRDHALSEWGQVLHDRGAWVLGAVLALHLAAVCWHQFVKRDEVLSRMTGRASES” the protein production was “failed”. In the case of “MTASDQFNSTHSAVDQYAELVLHNGRMYTLDPAQPWADAVAIRQGKLIAVGSLASLASLIGPNTRQHDLDGAFCMPGLHDMHTHPDLALAPRYADDLDVGIEDPTPEQLAAAIHAYADSHPGDGWIYGQYWVRYTFREAGLTPGREWLDSVMPHRPVALLDRMWGTMMVNSKALELAGIDRHTSDPRNGYLERDELTGEPNGLLIDGAYALIHAAMPPTPVSVLRRAYRDGVHFQTSRGVTATKYVHVCENRLQALKELDDAGELTLRVEAAISWQDDIFPVRRRWELLSGERHFYRSARLSANAVKFHFDGTVEPKSSYLLTPWPEESSWRGKLNLTPEHITDMVVDMDKRGLRVIAHCTGDGASDVFLDAVAEARRRNGNSGIRHQCAHSTLLHPGNLKRFQALDVIAEFSPAAWYPTPFASGARSGYGQERLKRIYDFKGVLAAGGIAVFGTDWPVASIDPWLALETMVTRQNPWNQEPDTFGDPISLEQALQVATLNGAHAMGLEHLTGSLEAGKSADLIVLDRDLFAQGARNYIHHTQVQLTFVEGQLVYDRQGTFSDTPLQAVWEGLPPVIEGKE”, the protein production was “failed”. With “MTAVETKKQYLTVFKEDGIAEIHLHINKSNSYDLEFYKEFNAAIDDIRFDPDIKVVIVMSDVPKFFSAGADINFLRSADPRFKTQFCLFCNETLDKIARSPQVYIACLEGHTVGGGLEMALACDLRFMGDEAGKIGLPEVSLGVLAGTGGTQRLARLIGYSRALDMNITGETITPQEALEIGLVNRVFPQAETRERTREYARKLANSATYAVSNIKLAIMNGKEMPLNVAIRYEGELQNLLFRSEDAKEGLSAFLEKRQPNWKGI” the protein production was “not failed”. In the case of “MTAVSLGPSPARRDALARRIRLLVTATIGYNVVEAVVAITAGTIASSTALIGFGLDSVIEVSSAAAVAWQFSARDPAVREAREKRTLRIIAFSFFALALYVTVDSVRALTGTGEAGHSVPGIVLAGLSLAIMPFLSAAQRKAGREIGSASAVADSKQTLLCTYLSAVLLVGLLVNLLLGWTWADPVAALVISAIAVKEGRDAWQGRGCCAAPTWATPQAGADTDNCDCCS”, the protein production was “failed”. In the case of “MTCANCATDVIYMAERQNERDDRQKLKNISFAKKILLGLSMYVPSSTFKKIVLKLLGAHIGKNVYFGPGSLVLSNDYSSVYIENNVFVAPGVLINVNNFTVGENSHLGYQCLMVGESLKIGSRCNISNRTFIECSYSPILIEDDVTIGGCAMVSTHDGSYRQVYGLEMKAAPIYIRSKAFIGNNAIILPGIEIGRKVIVGAGAVVTKNAVANSVICGVPADKIRTMEVSNENITGN”, the protein production was “failed”. For “MTDDRYTVISADCHAGADLLDYRPYLAKRHHDAFDAWAATYVNPYEDLLADTADRNWNSERRLAELAADGIVAEVVFPNTIPPFFPSASLMAPAPTAAEFEQRWAGLRAHNRWLADFCAAAPGRRAGVFQILLNDVEEAVKEISWAAGAGLRGGLLLPGTPPGSGLPELYSKAYDPIWAVCEELDVPVNHHAGSASPPLGDEPAARAVFMVETTWFSHRALWHLVFGGAFRRHPGLRLVLTEQGSGWIPGVLDMLDYYHGRLVAAGPKSATAEAKFGAGLDRAMGKGPSEVWRDNCFVGASFMRPHEVPLRDRIGLDKIMWGSDYPHDEGTYPYSREGLRIAYAGLPRTEIAAMAGGNAARVYGFDLSLLDPIAAKVGPTVAELARPLEEPPADATSPVFARGGSVRVW”, the protein production was “failed”. For “MTDFPTSLTAPKKGCEGCTGSPELGFSFDYAYQPIVNLHDQSIFAHEALVRGPNGEGAMSVLNQVTDQNRYRFDQKCRTTAIAGAAKLGMTERLSINFLPNAVYRPELCIRSTLEAAKQHDFPIERLIFETIESEHVDNNNHLSNILREYREFGFMTAIDDFGAGYSGLTLLADFQPDLIKLDMNLVRDIHRDRARQAIVRGVVTMCKDLGIKLIAEGIEHIEERDFLADCGISLMQGYLFAKPAFKALAQIAPEAWQKP”, the protein production was “not failed”. For “MTDIPAPAPAAEFWEARYRDTGRVWSGRPNELLVQEAGGLAPGTALDLGCGEGADAVWLASRGWRVTGVDISATALERAAGHADGAGVGDRVLWERHELGPSFPEGSFDLVSAHYLQSPVALDQQAVLRAAARAVAPGGTLLVVMHAGWPSWQTEPPFDAAFPTLDGVLAELALPEGEWSVETRRTARRPSVAPDGTEGFREDHVWRLKRAVFVE”, the protein production was “failed”.
